Experimental data taken from doi:10.1101/2022.04.26.489478, “Shuffled ATG8 interacting motifs form an ancestral bridge between UFMylation and C53-mediated autophagy” (bioRxiv, 2022).

Biological target: T1, mCherry tagged HsC53 (human, UniProt Q96JB5 1-506)
T1 construct: C53 (CDK5RAP3), Homo sapiens; also called human C53; mCh-HsC53; source: E. coli Rosetta2 (DE3) pLysS, purified (HisTrap, ion exchange, SEC)
T1 sequence (looked up): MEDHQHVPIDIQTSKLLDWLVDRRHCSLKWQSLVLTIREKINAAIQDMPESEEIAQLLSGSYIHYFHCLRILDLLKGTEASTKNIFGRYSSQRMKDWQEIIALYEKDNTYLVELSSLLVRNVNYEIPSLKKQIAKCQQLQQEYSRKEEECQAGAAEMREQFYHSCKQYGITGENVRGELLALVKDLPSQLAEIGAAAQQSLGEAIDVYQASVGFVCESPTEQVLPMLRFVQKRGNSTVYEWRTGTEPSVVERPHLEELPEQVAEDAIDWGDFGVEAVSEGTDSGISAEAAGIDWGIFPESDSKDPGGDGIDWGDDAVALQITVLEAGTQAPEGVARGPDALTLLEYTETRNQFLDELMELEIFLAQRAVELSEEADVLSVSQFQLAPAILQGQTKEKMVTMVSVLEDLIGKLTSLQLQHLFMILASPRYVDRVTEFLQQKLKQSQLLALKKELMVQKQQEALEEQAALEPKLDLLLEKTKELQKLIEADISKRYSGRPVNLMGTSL
Test: microscopy-based on-bead protein-protein interaction assay; GST-tagged bait (2 µM) on Glutathione Sepharose 4B beads, 1 µM mCherry tagged partner with or without competitor, 25 mM HEPES pH 7.5, 150 mM NaCl, 1 mM DTT, 30-60 min at RT, confocal imaging; fluorescence normalized to the control condition
Settings: both partners purified

B1: GST-GABARAP (natural protein, human, UniProt O95166 1-117, looked up)
chain: MKFVYKEEHPFEKRRSEGEKIRKKYPDRVPVIVEKAPKARIGDLDKKKYLVPSDLTVGQFYFLIRKRIHLRAEDALFFFVNNVIPPTSATMGQLYQEHHEEDFFLYIAYSDESVYGL
notes: GABARAP, human ATG8 isoform; also called human ATG8 isoform GABARAP; source: E. coli Rosetta2 (DE3) pLysS; in bacterial lysate (pull-downs) and purified (on-bead assays)
Question: Does B1 bind?
Answer: Result: binds
